Measurements published in paper PMC11876735 (Journal of Nuclear Medicine, 2025).

How the values were obtained:
Conditions in all cases: in vivo
[1] = tested on: midgut neuroendocrine tumors; set-up: species or system patients
From the text: For tumor dosimetry, baseline scintigraphy was used to select tumors that were easily delineated on imaging. Tumor doses were derived using the sphere model of OLINDA/EXM version 1.0 ([14]). The ^177Lu dose factor values were interpolated for each lesion on the basis of its mass.

[2] = set-up: species or system patients
From the text: Safety data were collected as previously described ([5]).

[3] = set-up: species or system patients; remark: listed apart in the source
Procedure: Dosimetry assessments were performed using planar scintigraphy methodology routinely used at the time the study was conducted ([9],[10]). […] The geometric mean between the anterior and posterior images at each time point was calculated ([11]). Source organ radioactivity was determined at each time point, and cumulative activities were calculated ([12]). Absorbed dose values in target organs were calculated using time-integrated activity coefficients ([13]) of source organs using OLINDA/EXM version 1.0 (Hermes Medical Solutions) ([14]). A blood-based model was used to derive the cumulative activity in the red marrow and the corresponding absorbed dose ([15],[16]).

[4] = tested on: midgut neuroendocrine tumors; set-up: species or system patients; remark: listed apart in the source
Procedure: The best tumor size change from baseline was assessed in individual lesions with dosimetric estimations. Tumor size was assessed by CT using 2 dimensions (longest [L] and perpendicular [W]) for each tumor per time point. Size change was based on the ratio of tumor area (L × W) at measured times (Tt) to tumor area at baseline (Tbl) and presented as a percentage where percentage tumor size change was ((Tt/Tbl) − 1) × 100%. Positive values indicate size growth, and negative values represent size reduction. Analyses were repeated using 1 dimension (short axis for lymph node lesions and long axis for other lesions). Tumor measurements were performed at 2–7 time points at 12-wk intervals until 72 wk after the first administration. […] However, the timings of dosimetry assessments were not the same for all lesions. Lesion uptake was assumed to be proportional to mass, resulting in a constant absorbed dose at all cycles for an equivalent injected activity. The cumulative absorbed dose was calculated for each target lesion. The correlation between tumor absorbed dose and effect was assessed by plotting the best percentage tumor size change from baseline versus the tumor cumulative absorbed dose.

Structure (SMILES): C[C@@H](O)[C@H](NC(=O)[C@@H]1CSSC[C@H](NC(=O)[C@@H](Cc2ccccc2)NC(=O)CN2CCN(CC(=O)O)CCN(CC(=O)O)CCN(CC(=O)O)CC2)C(=O)N[C@@H](Cc2ccc(O)cc2)C(=O)N[C@H](Cc2c[nH]c3ccccc23)C(=O)N[C@@H](CCCCN)C(=O)N[C@@H]([C@@H](C)O)C(=O)N1)C(=O)O [^177Lu-DOTATATE, [^177Lu]Lu-DOTATATE, metal not drawn]
- Absorbed dose for four 7.4 GBq (29.6 GBq in total), Median (range) [1]: 134 (7–2,218) Gy
- Absorbed dose per unit activity, Median (range) [1]: 4.5 (0.2–74.9) Gy/GBq
- Lesion activity at 160 h [1]: less than 0.01 % of injected activity
- Target lesions with cumulative absorbed dose of at least 50 Gy [1]: 73.8%
- Target lesions with cumulative absorbed dose of at least 100 Gy [1]: 52.3%
- Absorbed dose for four 7.4 GBq (29.6 GBq in total), Mean (SD) ([1]; SD): 224 (313) Gy
- Absorbed dose per unit activity, Mean (SD) ([1]; SD): 7.6 (10.6) Gy/GBq
- Acute hematologic toxicity grade [2]: mild or moderate (grade 1 or 2)
- Patients with grade 4 lymphopenia during treatment (acute toxicity) [2]: 20%
- Patients with transient grade 3 leukopenia during treatment [2]: 10%
- Severe renal toxicity [2]: no severe renal toxicity was observed
- Overall effective half-life of the elimination phase ([3]; human): 21 to 161 h
- Cumulative red marrow dose [3]: 3.2 Gy
- Kidney doses in three substudy patients [3]: 28-33 Gy
- Kidney injected activity profile, peak [3]: around 8%
- Cumulative absorbed dose range of lesions with approximately 50 Gy or greater [4]: 50–789 Gy
- Lesions that received a cumulative absorbed dose of approximately 50 Gy or greater [4]: 73%
